Substitutions are numbered along the chain they refer to.
B1: h3818G (antibody, V domains shown)
VH: EVQLLESGGGLVQPGGSLRLSCAASGFTFANYGMSWVRQAPGKGLEWVASVRSGGSRTYYSDNVKGRFTISRDNSKNTLYLQMNSLRAEDTAVYYCVRYDHYSGSSDYWGQGTLVTVSS
VL: DVVMTQSPLSLPVTLGEPASISCKSSQSLMDTDGKTYLNWLLQKPGQSPQRLIYKVSNRESGVPDRFSGSGSGTDFTLKISRVEAEDVGVYYCWQGTHFPRTFGQGTKVEIK
B2: h2929 (antibody, V domains shown)
VH: B1 VH with A30S, Y32F, G55S, S56G, S103T, S105T
VL: B1 VL with L15P, K24R, M30V, T32Y, K44R, E60D, T97S, T102S, F103Y
B3: h2926 (antibody, V domains shown)
VH: B1 VH with A30S, Y32F, G55S, S56G, S103T, S105T
VL: B1 VL with L15P, M30L, T32Y, E60D
B4: h49k3G (antibody, V domains shown)
VH: B1 VH with A30S, Y32F, S56G, S105T
VL: B1 VL with M30L, T32S, E60D
B5: h2727 (antibody, V domains shown)
VH: B1 VH with A30S, V51I, G55S, S56G
VL: B1 VL with L15P, M30L, T32Y, E60D, T102S
B6: h4917G (antibody, V domains shown)
VH: B1 VH with A30S, Y32F, S56G, S105T
VL: B1 VL with M30L, T32S, S57T, T102S
B7: h2826 (antibody, V domains shown)
VH: B1 VH with A30S, Y32F, G55S, S56G, S105T
VL: B1 VL with L15P, M30L, T32Y, E60D
B8: h2927 (antibody, V domains shown)
VH: B1 VH with A30S, Y32F, G55S, S56G, S103T, S105T
VL: B1 VL with L15P, M30L, T32Y, E60D, T102S
B9: h4921G (antibody, V domains shown)
VH: B1 VH with A30S, Y32F, S56G, S105T
VL: B1 VL with M30L, T32S, K55R, S57T, E60D, S61T
B10: h2731 (antibody, V domains shown)
VH: B1 VH with A30S, V51I, G55S, S56G
VL: B1 VL with M30L, T32Y, K55R, S57T, E60D, S61T, T102S

What follows are binders tested against Aβ1-42 fibrils (human) (assay: competition ELISA; plate coated with fibril Aβ42; competitor hBP-biotin; IC50 of test divided by IC50 of hBP).
Chain of Aβ1-42 fibrils (human) (peptide, as listed by the source): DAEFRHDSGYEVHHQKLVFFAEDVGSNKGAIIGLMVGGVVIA

IC50 ratio (test:hBP)	Binder
1.18	B1
1.16	B2
0.99	B3
2.16	B4
3.06	B5
2.69	B6
1.1	B7
1.6	B8
1.01	B9

What follows are binders tested against Aβ plaques in APPxPS1 mouse brain (human) (UniProt P05067) (assay: in vivo target engagement; APPxPS1 mice dosed 3 mg/kg SC weekly for three weeks; anti-human IgG IHC of cerebral cortex, % stained area).
Chain of Aβ plaques in APPxPS1 mouse brain (human) (P05067 672-713): as the sequence (peptide, as listed by the source) above

Plaque Binding (% ROI)	Binder
0.07	B10

What follows are binders tested against Aβ plaques in APPxPS1 mouse brain (human) (UniProt P05067) (assay: in vivo target engagement; APPxPS1 mice dosed 10 mg/kg SC weekly for three weeks; anti-human IgG IHC of cerebral cortex, % stained area).

Plaque Binding (% ROI)	Binder
0.079	B10

From patent publication US20230331828A1
